Assay results from publication PMC8041466.

Tests used:
[1] = biological target: Cytotect (HCMV-IgG hyperimmunoglobulin preparation, human plasma pool, polyclonal IgG) (human); assay: flow cytometry on cells; same set-up; pairs of the vFcγR on infected cells with Cytotect IgG
[2] = biological target: Rituximab (humanized anti-hCD20 IgG1) (human); assay: flow cytometry on cells; same set-up; pairs of the CD4-tailed vFcγR on the cells with Rtx
Chain of Rituximab (humanized anti-hCD20 IgG1) (human) (heavy, as listed by the source, chain 1 of 2): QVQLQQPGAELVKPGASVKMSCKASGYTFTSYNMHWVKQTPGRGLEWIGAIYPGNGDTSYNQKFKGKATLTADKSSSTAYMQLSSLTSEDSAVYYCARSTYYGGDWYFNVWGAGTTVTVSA
Chain of Rituximab (humanized anti-hCD20 IgG1) (human) (light, as listed by the source, chain 2 of 2): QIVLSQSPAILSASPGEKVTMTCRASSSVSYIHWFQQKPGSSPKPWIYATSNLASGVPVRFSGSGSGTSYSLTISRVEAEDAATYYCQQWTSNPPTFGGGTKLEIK

gp68 natively expressed on HCMV AD169/pBAC2 mutant-infected MRC-5 cells (from UniProt P16739 24-345) (natural protein)
percent reduction of FcγRIII binding [1]: 60%

gp68-CD4 (gp68 with the transmembrane and cytosolic domains of human CD4)
percent reduction of FcγRIII binding [2]: 60%
